Laboratory results from patent publication US8440804B2, “Polypeptides having modulatory effects on cells” (Ecole Normale Superieure de Lyon, priority 2006, dated 2013).

Tests used:
[1] = test system: tibialis anterior muscle atrophy; experiment: In vivo tibia muscles denervation assay; conditions: mice, plasmid electroporation in hind legs, 14 days post-denervation
Description: Vectors containing TRX, the R5G42, C7 or N9 aptamers or NaCl (control) were electroporated in mice hind legs (day 1) and an unilateral abolition of the motor innervation of the tibia muscles of the left hind leg was performed (day 3). After euthanasia of the mice (day 17) the tibialis anterior area was measured. Without denervation, the muscle area is relatively stable from one experiment to another (6.532.412+/−351.070, or 5.3% of variation). With denervation a reduced atrophy effect of about 27% and 48% is observed with aptamers R5G42 and N9 as compared to the atrophy effect obtained using the NaCl control (See FIGS. 19-20). The 100% of atrophy effect was evaluated using the data obtained with the NaCl control.
Another group of mice hind legs were electroporated after the injection of vectors containing TRX, the R5G42, C7 or N9 aptamers or with NaCl (control) at day 1. A unilateral abolition of the motor innervation of the tibia muscles of the left hind leg was performed at day 3 in order to induce a muscular atrophy. The mice were then euthanised at day 17, i.e. 14 days after sciatic denervation of the left hind leg. […] With denervation a reduced atrophy effect of about 27% and 48% is observed with aptamers R5G42 and N9 as compared to the atrophy effect obtained using the NaCl control (FIG. 18). […]

NS5A-TP2 [2] = target: T1, NS5A-TP2 (Homo sapiens, UniProt Q7Z4H3); experiment: Further yeast two-hybrid binding assays (higher sensitivity)
T1 construct: expressed in transfected cells; host or cells: yeast
T1 sequence (Q7Z4H3 1-204): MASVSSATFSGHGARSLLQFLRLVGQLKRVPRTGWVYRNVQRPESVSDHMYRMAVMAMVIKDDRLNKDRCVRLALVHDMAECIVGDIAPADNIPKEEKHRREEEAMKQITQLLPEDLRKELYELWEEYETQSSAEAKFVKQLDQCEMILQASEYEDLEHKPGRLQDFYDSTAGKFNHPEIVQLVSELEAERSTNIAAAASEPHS
Text: FIG. 14. Specificity of aptamers according to the invention for CNA and NS5A-TP2 Interaction matrix between peptide aptamers R5G42, C2, C7, C8, N9, R5G44 and R5G52 with CNA constructs CNA1-CNA8 (A) CNA9-11 (B) and NS5A-TP2 (C). An interaction phenotype between CNA3/CNA 11, which both contain the Calmodulin binding domain (CaM) and the auto-inhibitory domain (Al) but not the CNB binding domain (CNB) and the aptamers R5G42, C2, C7, C8 and N9 is observed in a two-hybrid assay. R5G44 and R5G52 aptamers recognize neither the CNA fragments, nor NS5A-TP2. Only aptamers R5G42 and N9 recognize NS5A-TP2.
The inventors proceeded to further yeast two-hybrid binding assays between peptide aptamers R5G42 (SEQ ID 22), C2 (SEQ ID 23), C7 (SEQ ID 27), C8 (SEQ ID 28), N9 (SEQ ID 33), R5G44 and R5G52 with CNA constructs CNA1-CNA8 (FIG. 14A), CNA9-CNA11 (FIG. 14B) and NS5A-TP2 (SEQ ID 15) (FIG. 14C). The sensitivity of this yeast two-hybrid assay was higher than in the experiment reported above.

[3] = target: T2, CNA beta C-terminal fragment (Homo sapiens, UniProt P16298); experiment: Yeast two-hybrid assays of R5G42 mutants; type: binding; conditions: plasmids pSH18-34, pJK103, pRB18-40
T2 construct: expressed in transfected cells; host or cells: yeast (MB210a transformed with library plasmid, mated with bait strain)
Description: (§1) The capacity of R5G42 mutants having a one amino acid change as compared to R5G42 to bind CNA beta and gamma C-Terminal fragments (FIG. 3b) and NS5A-TP2 was tested in yeast two-hybrid assays. CNA beta and gamma C-Terminal fragments and NS5A-TP2 were cloned in three different vectors (pSH18-34, pJK103 and pRB18-40). These three plasmids differ from each other in the level of sensitivity of their promoter, pSH18-34 having the highest sensitivity and pRB18-40 having the lowest.
(§2) The inventors explored the ability of R5G42 mutants having a one amino acid change as compared to R5G42, to bind to CNA beta and gamma C-Terminal fragments (FIG. 3b) and to NS5A-TP2. To this end, they proceeded to yeast-two hybrid assays as in example 3. CNA beta and gamma C-Terminal fragments (FIG. 3b) and NS5A-TP2 were cloned in three different plasmids (pSH18-34, pJK103 and pRB18-40), which differed from each other in the level of sensitivity of their promoter to the bait/prey complex formation, pSH18-34 having the highest sensitivity and pRB18-40 having the lowest.

NS5A-TP2 [4] = target: T1, NS5A-TP2; experiment: Yeast two-hybrid assays of R5G42 mutants; type: binding; conditions: plasmids pSH18-34, pJK103, pRB18-40
Description: as §1, §2

B1: N9: R5G42 mutant having a one amino acid change (SEQ ID 33) (protein)
chain: MVKQIESKTAFQEALDAAGDKLVVVDFSAAWCGPSAVTFAVCALGPCKMIKPFFHSLSEKYSNVIFLEVDVDDCQDVASECEVKCMPTFQFFKKGQKVGEFSGANKEKLEATINELV
modifications: Aptamer R5G42 mutant N9
reduced atrophy effect as compared to the NaCl control (tibialis anterior area) [1]: ~48% | recognition of NS5A-TP2 (NS5A-TP2 [2]): recognized NS5A-TP2 | yeast two-hybrid interaction [3]: not with the CNA beta and gamma C-terminal fragments | yeast two-hybrid interaction (NS5A-TP2 [4]): shown to interact with NS5A-TP2
